According to patent US20140212423A1 (AbbVie / Abbott, published 2014):

What was measured:
[1] = molecular target: T1, mouse Transferrin Receptor overexpressed on Hek 293 cells (mouse, UniProt Q62351 1-763); experiment: 293/mTFR cell-based assay
T1 construct: whole, on cells; also called Hek293/mTfR; 293/mTFR
Method: (§1) Meso-scale Discovery (MSD) Electrochemiluminescesnce (ECL) assays to screen for antibodies or DVDs that bind a desired target antigen expressed on the cell surface were performed as follows: Hek 293 cells overexpressing mouse Transferin Receptor were added onto MSD 96-well plates (MSD Cat# L11 XB-3, lot#2290-EA) which were blocked using blocking buffer (30% FBS Serum (Hyclone) in PBS) at 37° C. for 1 hr. After incubating at RT for 30 min with mild agitation, plates were washed with DPBS 3 times and Abs/DVDs (10,000 ng/ml) were added. After incubating for 1 hr at RT, plates were washed 3 times with DPBS and 25 ul of Goat anti human Sulfo TAG (MSD Cat# R32AC-, Lot# W001162) at 1 μg/ml is added. Following a 1 h incubation at RT for 1 hr, plates are washed and MSD read buffer is added before reading on MSD SECTOR Imager 6000. EC50 values are obtained using Xlfit4 software package

[2] = molecular target: Repulsive guidance molecule A; experiment: cell-based or functional assay
rmTfR (123-763) = molecular target: T2, rmTfR (123-763) (mouse, UniProt Q62351 123-763); experiment: Biacore SPR, DVD-Ig captured via anti-human Fc, rmTfR (123-763) in solution
T2 construct: range 123-763; also called recombinant mouse transferrin receptor 123-763
T2 sequence (Q62351 123-763): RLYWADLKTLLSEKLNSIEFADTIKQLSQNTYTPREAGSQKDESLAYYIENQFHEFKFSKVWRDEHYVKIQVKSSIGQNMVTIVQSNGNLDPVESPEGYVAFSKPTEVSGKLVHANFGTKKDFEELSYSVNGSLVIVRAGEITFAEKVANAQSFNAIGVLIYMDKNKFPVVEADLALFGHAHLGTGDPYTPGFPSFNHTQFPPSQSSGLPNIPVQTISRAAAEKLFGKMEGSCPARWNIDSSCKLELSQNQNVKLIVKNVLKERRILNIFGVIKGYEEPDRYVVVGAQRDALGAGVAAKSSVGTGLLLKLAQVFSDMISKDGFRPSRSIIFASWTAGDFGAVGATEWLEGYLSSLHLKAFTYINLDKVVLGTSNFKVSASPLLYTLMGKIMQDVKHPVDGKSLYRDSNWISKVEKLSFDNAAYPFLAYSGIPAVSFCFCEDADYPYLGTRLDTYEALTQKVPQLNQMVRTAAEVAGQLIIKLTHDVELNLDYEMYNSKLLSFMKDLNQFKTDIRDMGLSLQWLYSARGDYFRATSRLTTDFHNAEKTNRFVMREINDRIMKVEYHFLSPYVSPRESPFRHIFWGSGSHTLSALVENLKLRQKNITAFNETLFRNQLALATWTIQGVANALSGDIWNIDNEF
Method: The BIACORE assay (Biacore, Inc, Piscataway, N.J.) was used to determine the affinity of antibodies or DVD-Ig™ with kinetic measurements of on-rate and off-rate constants. Binding of antibodies or DVD-Ig™ to a target antigen (for example, a purified recombinant target antigen) was determined by surface plasmon resonance-based measurements with a Biacore® 1000 or 3000 instrument (Biacore® AB, Uppsala, Sweden) using running HBS-EP (10 mM HEPES [pH 7.4], 150 mM NaCl, 3 mM EDTA, and 0.005% surfactant P20) at 25° C. All chemicals were obtained from Biacore® AB (Uppsala, Sweden) or otherwise from a different source as described in the text. For example, approximately 5000 RU of goat anti-human IgG, (Fcγ), fragment specific polyclonal antibody (Pierce Biotechnology Inc, Rockford, Ill.) diluted in 10 mM sodium acetate (pH 4.5) was directly immobilized across a CM5 research grade biosensor chip using a standard amine coupling kit according to manufacturer's instructions and procedures at 25 μg/ml. Unreacted moieties on the biosensor surface are blocked with ethanolamine. Modified carboxymethyl dextran surface in flowcell 2 and 4 is used as a reaction surface. Unmodified carboxymethyl dextran without goat anti-human IgG in flow cell 1 and 3 is used as the reference surface. For kinetic analysis, rate equations derived from the 1:1 Langmuir binding model were fitted simultaneously to association and dissociation phases of all eight injections (using global fit analysis) with the use of Biaevaluation 4.0.1 software. Purified antibodies or DVD-Ig™ were diluted in HEPES-buffered saline for capture across goat anti-human IgG specific reaction surfaces. Antibodies or DVD-Ig™ to be captured as a ligand (25 μg/ml) were injected over reaction matrices at a flow rate of 5 μl/min. The association and dissociation rate constants, kon (M⁻¹s⁻¹) and koff (s⁻¹) are determined under a continuous flow rate of 25 μl/min. Rate constants are derived by making kinetic binding measurements at different antigen concentrations ranging from 10-200 nM. The equilibrium dissociation constant (M) of the reaction between antibodies or DVD-Ig™s and the target antigen is then calculated from the kinetic rate constants by the following formula: KD=koff/kon. Binding is recorded as a function of time and kinetic rate constants are calculated.

[3] = molecular target: T1, mouse Transferrin Receptor …; experiment: cell-based MSD-ECL binding on Hek293 cells overexpressing mouse TfR
Method: as §1

T1 sequence (Q62351 whole entry): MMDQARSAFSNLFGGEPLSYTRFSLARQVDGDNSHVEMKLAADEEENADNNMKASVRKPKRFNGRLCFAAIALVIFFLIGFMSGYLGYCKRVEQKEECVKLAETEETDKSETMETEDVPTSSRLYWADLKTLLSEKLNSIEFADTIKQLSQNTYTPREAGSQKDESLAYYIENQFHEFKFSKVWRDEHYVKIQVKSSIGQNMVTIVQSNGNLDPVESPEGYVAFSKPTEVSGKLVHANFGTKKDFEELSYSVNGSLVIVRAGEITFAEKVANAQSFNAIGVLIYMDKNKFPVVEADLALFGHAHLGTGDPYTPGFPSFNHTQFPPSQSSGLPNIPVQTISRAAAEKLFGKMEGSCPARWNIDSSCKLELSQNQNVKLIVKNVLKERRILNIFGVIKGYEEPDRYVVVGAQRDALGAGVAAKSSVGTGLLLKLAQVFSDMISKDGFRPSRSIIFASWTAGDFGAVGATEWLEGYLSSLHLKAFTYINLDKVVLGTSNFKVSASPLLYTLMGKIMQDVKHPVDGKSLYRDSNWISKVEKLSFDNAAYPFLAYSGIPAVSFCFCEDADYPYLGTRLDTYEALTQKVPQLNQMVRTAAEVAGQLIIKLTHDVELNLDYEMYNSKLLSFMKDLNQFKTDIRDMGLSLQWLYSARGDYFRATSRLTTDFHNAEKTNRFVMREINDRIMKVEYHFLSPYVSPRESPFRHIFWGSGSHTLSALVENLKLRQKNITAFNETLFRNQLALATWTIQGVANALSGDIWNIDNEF

| Binder | EC50 [1] [nM] | BMP Assay (EC50, nM) [2] [nM] | Kd (rmTfR (123-763)) [nM] | koff (rmTfR (123-763)) [s⁻¹] | kon (rmTfR (123-763)) [M⁻¹ s⁻¹] | EC50 [3] [nM] |
| --- | --- | --- | --- | --- | --- | --- |
| RGMA(AE12-1)-GS-TfR(AB402) (bispecific antibody, DVD-Ig composed from its name; constant regions not assigned) VH: EVQLVQSGAEVKKPGASVKVSCKASGYTFTSHGISWVRQAPGQGLDWMGWISPYSGNTNYAQKLQGRVTMTTDTSTSTAYMELSSLRSEDTAVYYCARVGSGPYYYMDVWGQGTLVTVSSGGGGSGGGGSEVQLVESGGGLVQPGGSLRLSCAASGFTFSNYGMHWIRQAPGKGLEWIAMIYYDSSKMNYADTVKGRFTISRDNAKNSLYLQMNSLRAEDTAVYYCAVPTSHYVVDVWGQGTTVTVSS VL: QSALTQPRSVSGSPGQSVTISCTGTSSSVGDSIYVSWYQQHPGKAPKLMLYDVTKRPSGVPDRFSGSKSGNTASLTISGLQAEDEADYYCCSYAGTDTLFGGGTKVTVLGGGSGGGGSGAIQMTQSPSSLSASVGDRVTITCQASQDIGNWLAWYQQKPGKSPKLLIYGATSLADGVPSRFSGSRSGTDFTLTISSLQPEDFATYYCLQAYNTPWTFGGGTKVEIKR | 5.36 | 0.014 |  |  |  |  |
| RGMA(AE12-1)-GS-TfR(AB403) (bispecific antibody, DVD-Ig composed from its name; constant regions not assigned; also called RGMA (AE12-1)-GS-AB403 DVD-Ig) VH: EVQLVQSGAEVKKPGASVKVSCKASGYTFTSHGISWVRQAPGQGLDWMGWISPYSGNTNYAQKLQGRVTMTTDTSTSTAYMELSSLRSEDTAVYYCARVGSGPYYYMDVWGQGTLVTVSSGGGGSGGGGSEVQLVESGGGLVQPGGSLRLSCAASGFTFSNYGMHWIRQAPGKGLEWIAMIYYDSSKMNYADTVKGRFTISRDNAKNSLYLQMNSLRAEDTAVYYCAVPTSHYVVDVWGQGTTVTVSS VL: QSALTQPRSVSGSPGQSVTISCTGTSSSVGDSIYVSWYQQHPGKAPKLMLYDVTKRPSGVPDRFSGSKSGNTASLTISGLQAEDEADYYCCSYAGTDTLFGGGTKVTVLGGGSGGGGSGEIVMTQSPATLSVSPGERATLSCQASQDIGNWLAWYQQKPGQSPRLLIYGATSLADGVPARFSGSRSGTEFTLTISSLQSEDFAVYYCLQAYNTPWTFGGGTKVEIKR | 4.3 | < 0.025 |  |  |  |  |
| RGMA(AE12-1)-SS-TfR(AB402) (bispecific antibody, DVD-Ig composed from its name; constant regions not assigned; not shown: short light-chain linker (code S) after a lambda VL) VH: EVQLVQSGAEVKKPGASVKVSCKASGYTFTSHGISWVRQAPGQGLDWMGWISPYSGNTNYAQKLQGRVTMTTDTSTSTAYMELSSLRSEDTAVYYCARVGSGPYYYMDVWGQGTLVTVSSASTKGPEVQLVESGGGLVQPGGSLRLSCAASGFTFSNYGMHWIRQAPGKGLEWIAMIYYDSSKMNYADTVKGRFTISRDNAKNSLYLQMNSLRAEDTAVYYCAVPTSHYVVDVWGQGTTVTVSS VL: QSALTQPRSVSGSPGQSVTISCTGTSSSVGDSIYVSWYQQHPGKAPKLMLYDVTKRPSGVPDRFSGSKSGNTASLTISGLQAEDEADYYCCSYAGTDTLFGGGTKVTVLGQPKAAPAIQMTQSPSSLSASVGDRVTITCQASQDIGNWLAWYQQKPGKSPKLLIYGATSLADGVPSRFSGSRSGTDFTLTISSLQPEDFATYYCLQAYNTPWTFGGGTKVEIKR | 30.9 | 0.436 |  |  |  |  |
| RGMA(AE12-1)-SS-TfR(AB403) (bispecific antibody, DVD-Ig composed from its name; constant regions not assigned; not shown: short light-chain linker (code S) after a lambda VL) VH: EVQLVQSGAEVKKPGASVKVSCKASGYTFTSHGISWVRQAPGQGLDWMGWISPYSGNTNYAQKLQGRVTMTTDTSTSTAYMELSSLRSEDTAVYYCARVGSGPYYYMDVWGQGTLVTVSSASTKGPEVQLVESGGGLVQPGGSLRLSCAASGFTFSNYGMHWIRQAPGKGLEWIAMIYYDSSKMNYADTVKGRFTISRDNAKNSLYLQMNSLRAEDTAVYYCAVPTSHYVVDVWGQGTTVTVSS VL: QSALTQPRSVSGSPGQSVTISCTGTSSSVGDSIYVSWYQQHPGKAPKLMLYDVTKRPSGVPDRFSGSKSGNTASLTISGLQAEDEADYYCCSYAGTDTLFGGGTKVTVLGQPKAAPEIVMTQSPATLSVSPGERATLSCQASQDIGNWLAWYQQKPGQSPRLLIYGATSLADGVPARFSGSRSGTEFTLTISSLQSEDFAVYYCLQAYNTPWTFGGGTKVEIKR | 71 | 1.18 |  |  |  |  |
| TfR(AB404)-LL-RGMA(AE12-1) (bispecific antibody) chain 1: QVQLVQSGAEVKKPGASVKVSCKASGFTFSNYGMHWIRQAPGQGLEWIAMIYYDSSKMNYADTVKGRFTITRDNSTNTLYMELSSLRSEDTAVYYCAVPTSHYVVDVWGQGTTVTVSSASTKGPSVFPLAPEVQLVQSGAEVKKPGASVKVSCKASGYTFTSHGISWVRQAPGQGLDWMGWISPYSGNTNYAQKLQGRVTMTTDTSTSTAYMELSSLRSEDTAVYYCARVGSGPYYYMDVWGQGTLVTVSS chain 2: AIQMTQSPSSLSASVGDRVTITCQASQDIGNWLAWYQQKPGKSPKLLIYGATSLADGVPSRFSGSRSGTDFTLTISSLQPEDFATYYCLQAYNTPWTFGGGTKVEIKRTVAAPSVFIFPPQSALTQPRSVSGSPGQSVTISCTGTSSSVGDSIYVSWYQQHPGKAPKLMLYDVTKRPSGVPDRFSGSKSGNTASLTISGLQAEDEADYYCCSYAGTDTLFGGGTKVTVLG | 3.61 | 13.2 |  |  |  |  |
| DVD2365 (bispecific antibody, DVD-Ig, outer AB405 (TfR), inner AB043 (APP), HG-short/LK-short; dual variable regions only; constant regions not assigned) VH: QVQLVQSGAEVKKPGASVKVSCKASGFTFSNYGMHWIRQAPGQGLEWIAMIYYDSSKMNYADTVKGRFTITRDNSTNTLYMELSSLRSEDTAVYYCAVPTSHYVVDVWGQGTTVTVSSASTKGPEVQLLESGGGLVQPGGSLRLSCAASGFTFSNYGMSWVRQAPGKGLEWVASIRSGGGRTYYSDNVKGRFTISRDNSKNTLYLQMNSLRAEDTAVYYCVRYDHYSGSSDYWGQGTLVTVSS VL: EIVMTQSPATLSVSPGERATLSCQASQDIGNWLAWYQQKPGQSPRLLIYGATSLADGVPARFSGSRSGTEFTLTISSLQSEDFAVYYCLQAYNTPWTFGGGTKVEIKRTVAAPDVVMTQSPLSLPVTPGEPASISCKSSQSLLDSDGKTYLNWLLQKPGQSPQRLIYLVSKLDSGVPDRFSGSGSGTDFTLKISRVEAEDVGVYYCWQGTHFPRTFGQGTKVEIKR |  |  | 78 | 0.000771 | 9870 | 3.2 |
| DVD2358 (bispecific antibody, DVD-Ig, outer AB402 (TfR), inner AB043 (APP), HG-short/LK-short; dual variable regions only; constant regions not assigned) VH: EVQLVESGGGLVQPGGSLRLSCAASGFTFSNYGMHWIRQAPGKGLEWIAMIYYDSSKMNYADTVKGRFTISRDNAKNSLYLQMNSLRAEDTAVYYCAVPTSHYVVDVWGQGTTVTVSSASTKGPEVQLLESGGGLVQPGGSLRLSCAASGFTFSNYGMSWVRQAPGKGLEWVASIRSGGGRTYYSDNVKGRFTISRDNSKNTLYLQMNSLRAEDTAVYYCVRYDHYSGSSDYWGQGTLVTVSS VL: AIQMTQSPSSLSASVGDRVTITCQASQDIGNWLAWYQQKPGKSPKLLIYGATSLADGVPSRFSGSRSGTDFTLTISSLQPEDFATYYCLQAYNTPWTFGGGTKVEIKRTVAAPDVVMTQSPLSLPVTPGEPASISCKSSQSLLDSDGKTYLNWLLQKPGQSPQRLIYLVSKLDSGVPDRFSGSGSGTDFTLKISRVEAEDVGVYYCWQGTHFPRTFGQGTKVEIKR |  |  | 1.3 | 4.06e-05 | 31300 | 0.1 |
| DVD2360 (bispecific antibody, DVD-Ig, outer AB403 (TfR), inner AB043 (APP), HG-short/LK-short; dual variable regions only; constant regions not assigned) VH: EVQLVESGGGLVQPGGSLRLSCAASGFTFSNYGMHWIRQAPGKGLEWIAMIYYDSSKMNYADTVKGRFTISRDNAKNSLYLQMNSLRAEDTAVYYCAVPTSHYVVDVWGQGTTVTVSSASTKGPEVQLLESGGGLVQPGGSLRLSCAASGFTFSNYGMSWVRQAPGKGLEWVASIRSGGGRTYYSDNVKGRFTISRDNSKNTLYLQMNSLRAEDTAVYYCVRYDHYSGSSDYWGQGTLVTVSS VL: EIVMTQSPATLSVSPGERATLSCQASQDIGNWLAWYQQKPGQSPRLLIYGATSLADGVPARFSGSRSGTEFTLTISSLQSEDFAVYYCLQAYNTPWTFGGGTKVEIKRTVAAPDVVMTQSPLSLPVTPGEPASISCKSSQSLLDSDGKTYLNWLLQKPGQSPQRLIYLVSKLDSGVPDRFSGSGSGTDFTLKISRVEAEDVGVYYCWQGTHFPRTFGQGTKVEIKR |  |  | 1.7 | 4.8e-05 | 28000 | 0.15 |
